Here are results for 20 variants from the RNAGym collection of RNA variant scans (doi:10.1073/pnas.2313332121).

Sequences and labels used below:
B1: TPR 5TU (parent)
chain: GGAUCUUCUCGAUCUAACAAAAAAGACAAAUCUGCCACAAAGCUUGAGAGCAUCUUCGGAUGCAGAGGCGGCAGCCUUCGGUGGCGCGAUAGCGCCAACGUUCUCAACUAUGACACGCAAAACGCGUGCUCCGUUGAAUGGAGUUUAUCAUG
B2: TPR t1 (parent)
chain: GACCAAUCUGCCCUCAGAGCUCGAGAACAUCUUCGGAUGCAGAGGAGGCAGGCUUCGGUGGCGCGAUAGCGCCAACGUCCUCAACCUCCAAUGCAUCCCACCACAUGAUGAUGCCUGAAGAGCCUUGGUUUUUUG

For some assays here: Fewer inactive variants are shown than the library holds.

One data set covers variants of B1. As to the kind of experiment: polymerase ribozyme fitness, log enrichment relative to wild type (log ratio); higher = more active; in vitro selection for triplet polymerase activity. Summed up:
(§1)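 A single round of triplicate in vitro selection, including frozen incubation at −7 °C, was applied to PCR-built, transcribed mutant libraries of each subunit of a heterodimeric triplet polymerase ribozyme. Illumina sequencing of input and output libraries retained genotypes with ≥10 input reads and ≥1 read per output. Fitness is the base-2 logarithm of genotype enrichment divided by wild-type enrichment, from inverse-variance-weighted replicate averages.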
Take GGAUCUUCUCGAACUAACAGAAAAGACGAAUCUGCCACAAAGCUUGAAAGCAUCUUCGGAUGCAGAGGCGGCAGCCUUCGGUGGCGCGAUAGCGCCAACGUUCUCAACUAUGACACGCAAAACGCGUGCUCCGUUGAAUGGAGUUCAUCAUG [U13A A20G A28G G48A U146C]: the “polymerase ribozyme fitness (log ratio)” value is not above -4.2.

Consider GGAUCUUCUCGAUCUAACAAAAAAGACAAAUCUGCCACAAAGCUUGAGUGCAUCUUCGGAUGCAGAGGCGGCAGCCUUCGGUGGCGCGAUAGCGCCAACGUUCUCAACUAUGACACGCAAAACGCGUGCUCCGUUAAAUGAAGUUUAUCAUG [A49U G136A G141A], for which the “polymerase ribozyme fitness (log ratio)” value was -0.805.

Variants of B2 are the subject of the next data set. The data set is described as above. The gist of the method:
as §1
On to GACCAAUCUGCCCUCAGAGCUCGAGAACAUCUUCGGAUGCAGAGGAGGGAGGCUUCGGUGGCGCGAUAGCGUCAACGUCCUCAACCUCCAAUGCAUCCCACCACAUGAUGAUGCCUGAAGAGCCUUGGUUUUUUG [C49G C72U], for which the “polymerase ribozyme fitness (log ratio)” value was -0.921.

On to GACCAAUCUGCCCUCAGAGCUCGAGAACAUCUUCGGAUGCAGAGGAGGCAGGAUUCGGUGGCUCGAUAGCGCCAACGUCCGCUACCUCCAAUGCAUCCCACCACAUGAUGAUGCCUGAACAGCCUUGGUUUUUUG [C53A G63U U81G A83U G120C], for which the “polymerase ribozyme fitness (log ratio)” value is -3.85.

Consider GACCAAUCUGCCCUCAGAGCUCGAGAACAUCUUCGGAUGCAGAGGAGGCAGGCUUCGGUGGCGCGAUAACGCCAACGUCCUCAACCUCCAAUGCAUCCCACCAUAUGAUGAUGCCUGAAAAGCCUUGGUUUUAUG [G69A C104U G120A U133A], for which the “polymerase ribozyme fitness (log ratio)” value was -0.971.

Turning to GACCAAUCUACCCUCAGAGCUCGAGAACAUCUUCGGAUGCAGAGGAGGCAGUCUUCGGUGGCACGAUAGGGCCAACGUCCUCAACCUCCAAUGCAUCCCACCACAUGAUGAUGCCUGAAGAGCCUUGGUUUUUUG [G10A G52U G63A C70G], the “polymerase ribozyme fitness (log ratio)” value is -2.51.

For the variant GACCAAUCUGCCCUCAGAGCUCGAGAACAUCUUCGGAUGCAGAGGAGGCAGGCUUCGGUGGUGCGAUAGCGCCAACGUCCUCAACCUCCAAUGCAACCCACCACAUGAUGAUGCCUGAAGAGCCUUGGUUUUUUG [C62U U96A], the “polymerase ribozyme fitness (log ratio)” value was -0.822.

On to GACCAAUCUGCCUUCAGAGCUCGAGAACAUCUUCGGAUGCAGAGGUGGCAGGCUUCGGUGGCGCGAUAGCGGCAACGUCCUCAACCUCCAAUGCAUCCCACCACAUGAUGAUGCCUGAAGAACCUUGGUUUUUUG [C13U A46U C72G G122A], for which the “polymerase ribozyme fitness (log ratio)” value is -1.17.

Take GACCCAUCUGGCCUCAGAGCUCGAGAACAUCUUCGGAUGCAGAAGAGGCAGGCUUAGGUGGCGCGAUAGCGCCAACGUCCUCAACCUCCAAUGCAUCCCACCACAUGAUGAAGCCUGAAGAGCCUUGGUUUUUUG [A5C C11G G44A C56A U112A]: the “polymerase ribozyme fitness (log ratio)” value was -0.571.

With GACCAAUCUGGCAUCAGAGCUCGAGAACAUCUUCGGAUGCAGAGGAGGCAGGCUUCGGUGGCGCGAUAGCGCCAACGUCCUCAACCUGCAAUGCAUCCCACCACAUGAUGAUGCCUGAAGAGCCUUGGUUUUUUG [C11G C13A C88G], the “polymerase ribozyme fitness (log ratio)” value is -2.71.

Consider GACCUAUCUGCCCUCAGAGCUCGAGAACAUCUUCGGAUGCAGAGGAGGCAGGCUUCGGUGGCGCGAUAGCGCCAACGUCCUCAACCUCCACUGCAGCCCACCACAUGAUGAUGCCUGAAGGGCCUUGGUUUUUUG [A5U A91C U96G A121G], for which the “polymerase ribozyme fitness (log ratio)” value is -0.932.

In the case of GACCAAUCUGCCCUCAGAGCUCGAGAACAUCUUCGGAUGCAGAGGAGGCAGGCUUCGGGGGCGCGAUAGCGCCGACGUCCUCAACCUCCAAUGCAUCCCACCACAUGAUGAUGCCUGAAGAGCCUUGGUUUUUUG [U59G A74G], the “polymerase ribozyme fitness (log ratio)” value was -0.396.

In the case of GACCAAUCUGCCCUCAGAGCUCGAGAACAUCUUCGGAUGCAGAGGAGGCAGGCUUCGGUGGCGCGAUAUCGCCAACGUCCUCAACCUCCAAUGUAUCCCACCACAUGAUGACGCCUGAAGAGCCUUGGUUUUUUG [G69U C94U U112C], the “polymerase ribozyme fitness (log ratio)” value came out at 1.42.

As for GACCGAUCUGCCCUCAGAGCUCGAGAUCAUCUUCGGAUGCAGAGGGGGCAGGCUUCGGUGGCGCGAUAGCGCCAACGUCCUCAACCUCCAAUGCAUCCCACCACAUGAUGAUGCCUGAAGAGCCUUGGUUUUUUG [A5G A27U A46G], the “polymerase ribozyme fitness (log ratio)” value was -2.16.

Take GACCAAUCUGCCCUCAGAGCUCGAGAACAUCUUCGGAUGCAGAGGAGGCAGGCUUCGGUGGCGCGAUAGCGUCAACGUCCUCAACCUCCAAUGGAUCCCACCACAUGAUGAUGCCUGAAGAGCCUUGGUUUUUUG [C72U C94G]: the “polymerase ribozyme fitness (log ratio)” value is -1.95.

As to GACCAAUCUGCCCUCAGAGGUCGAGAACAUCUUCGGAUGCAGAGGAGGCAGGCUUCGGUGGCGCGAUAGCGCCAACGUCCUCAACCUCCAAUGCAUCCCACCACAUGAUGAUGCCUGAAGAGCCGUGGUUUUUUG [C20G U125G], the “polymerase ribozyme fitness (log ratio)” value was -4.91.

GAGCAAUCUGCCCUCAGAGCUCGAGAACAUCUUCGGAUGCAGAGGAGGCAGGCUUCGGUGGCGCGAUAGCGCCAACGUCCUCAACCUCCAAUUCAUCUCACCACAUGAUGAUGCCUGAAGAGCCUUGCUUUUUUG [C3G G93U C98U G128C]: the “polymerase ribozyme fitness (log ratio)” value was -2.57.

For GACCAAUCUGCCCUCAGAGCUCGAGAACAUCUUCGGAUGCAGAGGAGGCAGGUUUCGGUGGCGCGAUAGCACCAACGUCCUCAACCUCCAAUGCAUCCCACCACAUGAUGAUGCCUGAAGAGCCUUGGUUUUUUG [C53U G71A], the “polymerase ribozyme fitness (log ratio)” value was -0.671.

On to GUCCAAUCUGCCCUCAGAGCUCGAGAACAUCUUCGGAUGCAGAGGAAGCAGGCUUCGGUGGCGCGAUAGCGCCAACGUCCUCAACCUCCAAUGCAUCCCACCACAUGAUGAUGCCUGAAGAGACUUGGUUUUUUG [A2U G47A C123A], for which the “polymerase ribozyme fitness (log ratio)” value is -2.56.

In the case of GACCAAUCUGCCCUCAGAGCUCGAGAACAUCUUCGGAUGCAGAGGAGGCAGGCUUCGGUGGCGCGAUAGCGCCAACGUCCUCACCCUCCAAUGCAUCCCACCACAUGAUGAUGCCUGAAUAGCCUUGGUUUUUUG [A84C G120U], the “polymerase ribozyme fitness (log ratio)” value amounted to 1.51.
